One data set relates to T1, Cc1ncc(CO)c(C=O)c1O.
T1 construct: full length, recombinant from E. coli; wild type untagged (as previously described); K229Q His-tagged (C-terminus; pET28a NdeI/EcoRI)
The experiment in a line: purified protein. The data set is classed as biochemical, Escherichia coli. Particulars: MgATP co-substrate, 20 mM K-HEPES pH 7.5, 0.2 mM MgCl2, 37°C.

Data set [1] relates to T2, Nc1ncnc2c1ncn2[C@@H]1O[C@H](COP(=O)(O)OP(=O)(O)OP(=O)(O)O)[C@@H](O)[C@H]1O.
T2 construct: full length, recombinant from E. coli; wild type untagged (as previously described); K229Q His-tagged (C-terminus; pET28a NdeI/EcoRI)
The experiment in a line: purified protein. Particulars: PL co-substrate, 20 mM K-HEPES pH 7.5, 0.2 mM MgCl2, 37°C. It counts as biochemical, Escherichia coli.

We go through two substances from PMC3404986, “Pyridoxal 5′-Phosphate Is a Slow Tight Binding Inhibitor of E. coli Pyridoxal Kinase” (PLoS ONE, 2012).

As a reminder, the Km is the concentration of substrate that gives half-maximal velocity. As a reminder, the kcat is the number of substrate molecules converted per active site and unit of time at saturation. “ePL kinase (E. coli pyridoxal kinase 1, PL kinase1) (Escherichia coli K-12; K229Q)”: in the data set with Cc1ncc(CO)c(C=O)c1O (His-tagged), the Michaelis constant (Km) is 384 µM and the kcat amounted to 0.433 s⁻¹. Also, in data set [1] (His-tagged), the Michaelis constant (Km) worked out at 122 µM and the kcat turned out to be 0.433 s⁻¹.

For the substance “ePL kinase (E. coli pyridoxal kinase 1, PL kinase1) (Escherichia coli K-12)”, the Michaelis-Menten constant (Km) in the data set on Cc1ncc(CO)c(C=O)c1O worked out at 60 µM; in data set [1], 460 µM. The kcat (in the data set with Cc1ncc(CO)c(C=O)c1O; in data set [1]) was 4 s⁻¹ throughout.
